Measured values from paper doi:10.1101/2022.01.21.477187.

Target: GMPCPP-stabilised rhodamine microtubules
Assay: single-molecule TIRF motility assay

Row | Substance | residency time on the microtubule [s] | landing rate (events μm^−1 min^−1) | processive landing rate (events μm^−1 min^−1)
1 | CENP-E483 with a GCN4 leucine zipper domain fused to its C terminus (from UniProt Q02224 1-483) | 6.36 |  | 
2 | full-length human CENP-E-mNeonGreen, Q02224 1-2701 | 37.1 | 0.147 | 0.009
